Experimental data taken from patent US10619138B2, “Herbicide-resistant hydroxyphenylpyruvate dioxygenases” (BASF SE, priority 2013, dated 2020).

Substrate: O=C(O)C(=O)Cc1ccc(O)cc1
Assay: purified protein, by the assay type
Conditions: other: pH 7.0, apparent, substrate inhibition model, 20.0 °C

B1: Arabidopsis thaliana HPPD, wild type, SEQ ID NO: 42 (Arabidopsis thaliana) (protein)
chain: MGHQNAAVSENQNHDDGAASSPGFKLVGFSKFVRKNPKSDKFKVKRFHHIEFWCGDATNVARRFSWGLGMRFSAKSDLSTGNMVHASYLLTSGDLRFLFTAPYSPSLSAGEIKPTTTASIPSFDHGSCRSFFSSHGLGVRAVAIEVEDAESAFSISVANGAIPSSPPIVLNEAVTIAEVKLYGDVVLRYVSYKAEDTEKSEFLPGFERVEDASSFPLDYGIRRLDHAVGNVPELGPALTYVAGFTGFHQFAEFTADDVGTAESGLNSAVLASNDEMVLLPINEPVHGTKRKSQIQTYLEHNEGAGLQHLALMSEDIFRTLREMRKRSSIGGFDFMPSPPPTYYQNLKKRVGDVLSDDQIKECEELGILVDRDDQGTLLQIFTKPLGDRPTIFIEIIQRVGCMMKDEEGKAYQSGGCGGFGKGNFSELFKSIEEYEKTLEAKQLVG
B1 gave a Km of 13 µM, a kcat of 12.9 s⁻¹ and a kcat/Km of 1e+06 M⁻¹ s⁻¹.
